Kd data for one molecule are collected here from PMC11063129.

For the series, the target named is T1, Twinkle (mitochondrial DNA helicase) (human, UniProt Q96RR1 43-684, del1-42).
T1 sequence: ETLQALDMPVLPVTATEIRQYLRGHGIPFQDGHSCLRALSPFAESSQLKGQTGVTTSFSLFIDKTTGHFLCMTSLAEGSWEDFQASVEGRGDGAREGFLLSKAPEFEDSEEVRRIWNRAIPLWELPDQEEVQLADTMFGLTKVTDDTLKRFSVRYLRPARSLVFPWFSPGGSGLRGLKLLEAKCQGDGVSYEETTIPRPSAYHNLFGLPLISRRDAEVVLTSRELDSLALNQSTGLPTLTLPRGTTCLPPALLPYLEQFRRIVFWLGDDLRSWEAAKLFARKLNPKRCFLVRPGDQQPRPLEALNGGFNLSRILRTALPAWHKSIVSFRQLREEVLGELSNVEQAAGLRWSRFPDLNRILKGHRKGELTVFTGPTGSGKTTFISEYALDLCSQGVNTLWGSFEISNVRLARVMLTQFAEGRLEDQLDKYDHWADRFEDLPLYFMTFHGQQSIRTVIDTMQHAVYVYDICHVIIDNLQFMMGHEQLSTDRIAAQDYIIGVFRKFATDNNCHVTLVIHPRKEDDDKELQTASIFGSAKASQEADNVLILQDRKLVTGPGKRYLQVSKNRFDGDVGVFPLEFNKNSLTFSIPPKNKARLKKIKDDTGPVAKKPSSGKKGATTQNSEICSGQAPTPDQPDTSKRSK
In words: FAM fluorescence quenching titration.

B1: BHQ1-dT22 (ssDNA)
DNA: TTTTTTTTTTTTTTTTTTTTTT
On to B1, for which the Kd (as a rule, the free concentration of one partner at which half of the binding sites on the other are occupied at equilibrium, for simple one-to-one binding) turned out to be 27.7 ± 3.8 nM.
